Source: publication PMC10842012

Tests used:
[1] = target: HRP29 decoration protein gp48 (Shigella phage HRP29); test: cryo-EM structure
[2] = target: HRP29 portal protein gp35 (Shigella phage HRP29); test: cryo-EM structure
[3] = target: HRP29 tailspike adapter protein gp44 (in the virion) (Shigella phage HRP29); test: cryo-EM structure
[4] = target: HRP29 tailspike protein gp52 (Shigella phage HRP29); test: negative-stain electron microscopy with 2D classes and 3D reconstruction

## HRP29 decoration protein gp48 (natural protein)
[1]
  stoichiometry N: 2

## HRP29 portal protein gp35 (natural protein)
[2]
  stoichiometry N: 12

## HRP29 tailspike adapter protein gp44 (in the virion) (natural protein)
[3]
  stoichiometry N: 3

## HRP29 tailspike protein gp52 (natural protein)
[4]
  stoichiometry N: 3
